Data from the domain aggregation screens of Martell et al. (2025).

Test: soluble fraction after stress (log2 fold change); higher = more stays soluble; pooled small domains, quantitative proteomics
Conditions: stress: 50 degC
How it was run: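 Quantitative proteomics served as the high-throughput read-out for pooled custom libraries of small protein domains. Each was stressed at 50°C. Aggregation propensity is expressed as the base-two log fold change in soluble protein after stress. A higher value means a larger share of the protein remains in solution.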

Row | Sequence | soluble fraction (log2)
1 | HMNEKEAEEAAEAQTEVPDVTGMAPAQAKNMLYQAGLSSEYRGEGETVSRQLPPAGETVNRGTKAVLYL | 0.0278
2 | HMTLPQEPTVLPRPLRVGDTVHIRTLDKDAEVLALPDARGMVAVRAGIINTKVKLTDLTLVEEK | 0.179
3 | HMIENGILELKGKTGVAQTVLRPSGKVLIDDEIYDAVALTGYIEKADKVLVTKVEATQLYVEK | 0.0576
4 | HMVRKGEINFDQLSVRARNALRNMNILFEKEILKLTEYDLKSIPNLGVKTTNELLSYIKRLQTNQKEE | -0.191
5 | HMDEEAIELTQEVMKLPPKQREVILLYYYHGLTGKEIAKALGISGAAVSKRLKQAKNQLHFALK | -0.0921
6 | HMTAFEPYLVKVMASVLNIRKGPGTSYAITGQIKDKGTYTIVAESGSWGKLKSGAGWISLSYTSKAGKA | -0.67
7 | HMSQVHYAVLFKNASAAEATEIVTYARETLGVQDIKINANGDILVPEDKVEEMRVSMSIAGFPK | 0.22
8 | HMANLDSLIKKVGQYAKDKQSISVDGIKKDLSIDKDMVKEALAELLKIGVVDKPDEAGQYKVIM | 0.299
9 | HMEPFEQLLDRITSQTGKEPEEVVARMNELITERFDGNIRPEAALVIVAKRDNIQFMDLLDQLKQALL | -0.516
10 | HMPMPQDEVSYALGLSIGQNFKASGIKAITSEDFIAGLQDALAEREPQMTTERAREVINQLFMRLQQEESE | 0.145
11 | HMASVLTAKLSEREVDVLNLLARGFTNADIAAQLHLSEGTVRNHVSTIFAKLDVNDRTQAAVIAIRHGL | -0.775
12 | HMTGGLTQEQISQLRMLTPQQIEQLRQLQPQQVEMLRQLRPEQVMLLTQLEPQQIMAFMRLEPSVIMQL | -0.215
13 | HMGEYGVLWYLLTKKEAVSAGELKEKLHVVPGRMTDILTALEKKGLIIRQKNKTDKRVVDVVLTKEGEKEA | -0.471
14 | HMNPIDAHVGARVRLRRMLIGMSQEKLGELLGVTFQQIQKYEKGANRIGASRLYEVSRVLDVPVQYFFDDM | -3.47
15 | HMSAMSPTEVGERLRLAREAVRMTQKQAADAISVARTTLVAIEQGQRRVRIDELQQLAKTYGVSVNAILR | -0.757
16 | HMSQEHTVPDYKDMEATVVYADLTQKGLNYEIAQETSPTIKEGNVTQTIPGMNEKVVSGDTITVFVSTGTG | 0.193
17 | HMKLRKINLIGIFGSKTAPSALVRLTNGRVLKVGLGELLDGGRVTAIGRSSLTYNKSGKSITLNMPI | -2.73
18 | HMEGTEVTTEPPGAQIEFDGKQFGPTPTRVPGLAAGKQFRITLAGYQEAKPKLKNNPKEGEPLSFTLTAI | 0.406
19 | HMKLNEQSMQVIDRIVDRHRGRPGPVKLMLHDVQKELGYIPFEAMEKIAAASGVSADEVYGVVTFYTQFTT | -0.0825
20 | HMGVNNDIIKHRKLEFMIEMLPDTFTRKEANEIGEGLGISLATLTRYLSSDAFERTGHGRYRKKD | -1.08
21 | HMGIRYQLADDVTDEQITAMTGKKAKIAAAIKAAGSAVSKMNVAGEMGYDKQNPINKDFMELVDAGIIVPS | 0.00228
22 | HMHTSEDLEKLLTRYFQSHESINRQQFEQLSGFTRTTASRRLKALVEAGKLKNIGLHHFPVYKPTEGNF | -0.354
23 | HMQGPDPYAVLGIDRHADERAIKRAYRKLISEHHPDRLGDLPEDMRKRAESRASEINAAYDRIKEARGF | 0.0487
24 | HMNIQPAMLNAANGGVAWKERGISMSQIMKRNAHTAEGSQKLWDYAFENFFQKNIDAGNIRDDR | 0.0644
25 | HMAMDSGELEAIVDRLISEHPDDWAALTAGDDRERKKKSGFFVGEVMKATRGQADGRAVIELLASRSA | 0.00605
26 | HMHSLGDQVFETIKELIVNNTYQPGELLQIDKLAAEFGVSTTPVREALLRLEGLGLVDIERNKAAVVT | -0.112
27 | HMFDENVKLIENEYDVSIISRGSELKVMGDVENVDKAARALRSMLAMINKGESLTEQNVRYVLTLVNEGNE | -0.527
28 | HMDYADISYKIFMNHIKNGQVERVELSGDPRIMGKLKDGTYFVTDNPRTENFKEFLLLNNVQVIETN | 0.43

Row | Sequence | soluble fraction (log2)
29 | HMAKSETAKIKATPYGWLRVRDTPSLNGAEIARVNSGDEYKVLEKETGWIKIKVSDTVEGWVSDAYIELS | -0.0312
30 | HMETKQYIVEAQDEGTRLDVYLTKELGQSRSYVQSLVKEGHVQVNGKTGKSNLKLSSSSEILVTIPEVQ | -0.0648
31 | HMYTVQQLARLAGITPRTLRHYDAIGLLKPTRVGENGYRYYGSEALLRLQSILLYRELDMPLEDIRRVLDS | -3.15
32 | HMYHPGFEALREVARQGSFIKAARALGISGPAVSKQIKSLEARLNLVLLHRTTRAVTLTEAGQRLTEILD | -2.07
33 | HMHFEWNELRKAINDFLAEQNMNEDKQLGPYFIQRDIVVPETGTEIDSKKFSEVFKHKVIMYLFDDAAKQ | -0.0513
34 | HMNTGLSEREHEIAQLVLQGRTYAEIGAELFISPRTAEHHIGQIRRRLAATSRSDLLAKLRVAMNTTEGAG | -1.27
35 | HMSVDIWTGAQTGNIEAVKQHLADGVDVNSKSDIGRTALDVAIAFKQPLITDLLRKHGGKTRDELKAAE | 0.545
36 | HMRYFDDEELNNKFLEFLSMRKKIRKPVRTDRALKALLKKLHELSGGDVGLMKQIIDQSLDKEWLGLFEL | -0.422
37 | HMQRDERYVYHTVLAGETIYSLSRKFNVTMDELLESNPALRSGVLTTGSEIRVLKAQMAQNFD | -0.376
38 | HMYTGSEGMAGLEGRAVTEVGPEAGTVLVKGEYWQARSDEPIATDRKIRVIRLEGLRLRVAEIHPEG | -0.0371
39 | HMVPAMEVALEDARRAIEQVVSGERTSVQLSSQEAMIRKLQHQMAKDANLFSRSSGVEPQRRVTIYTN | 0.0136
40 | HMRKDEFLQTLRRALNGNVPPRVVEENVRYYDGYISDEVRKGRSEEEVIEEIGDPRLIARTIEDTT | 0.0826
41 | HMRGFGYVRRLPSKRYQASYAGPDLQRHVAPTTFTTKADAESWLGAERKVVESGSWRPPAVREAEARLS | 0.357
42 | HMRPPLEWGTHGEITTRTVASGYVRASARVRLWDGELQRMTATASTASDARASLQHRIAERLRFSEL | -1.46
43 | HMSLSISSLVFFRKNAGLTQADIATAMSITQSAVARLEKRLLSDSDVTLKTLERYAEAVGIRMHVDFEP | -0.0207
44 | HMEVLEGFIEDIKFKSEESGYTVAKLNNRNKSIVIVGTMPFISEGQHVKLTGEWKIHQKFGAQFNVKELEE | -0.347
45 | HMELNFEGFYRFVRDELNVDLNAYKEKQLKRRIATVMKSSGALTLEDYSRLIANDEVIRNKFLDYITI | -1.08
46 | HMRNANENTLKDLPVAVPNIHVSNIEEKKDFHLIQLEYSQEFDPREDLFNFAVNSSWVILKMTPT | 0.422
47 | HMAMNITQRHQEILAVIKQEKHITVSEISKLLGVSEVTIRKDFNYLEEKNLIYRHHGGASLNN | -1.58
48 | HMVKVEVKPNVLQWVIKRMDNFDRLKDQFPNIDKWINQESQPTLKQLEKLAKMTAVPLGYFFLPNPPEEK | -0.183
49 | HMSTADGGYPSIVINDGRVIDTNLQKLGLDRSWLSAELKRQGKGSEKDIFLMTVNQRREVYISVKEA | -0.27
50 | HMKFPIITAKQDSDGKFYWAQTTDKGKTYTFILDGDGKKFPIGGTMPDVKINENGYWSVNGSSTGVLANDL | 0.0311
51 | HMKRLLLPGDLAGVRRHLLDRENSFHILRVLRLARGSTIEAMDDAGNRFSATLAGVKAGRALFDLAAKI | -1.54
52 | HMLPIKLDLEIGENVRVVSGPLENFVGSVVSFDTDQQKVKLVVEMFGRKTPVELDFIEVQKLR | -0.435
53 | HMADPLQLLEQQRQDYIQAVTEYLNSHPNAKPIWDVMKKDAGYGDMKLTDIPLGILKKLYITLT | -0.356
54 | HMGPTGGLTPHIAIADKRASEAIEFYKQAFGAVEQVRMPAEDGVRLMHAHLLVNGSSLMMHDDFPEYSGQ | 0.0526
55 | HMDTNPKVIITMDGVNVRSSASTGSDILFIAEKGEEYELISESGDFYKILYEGNKEGYVASWLVETSE | 0.0987
